The source of these data is patent publication EP3470429A1 (Numab Innovation AG, dated 2019).

The target of experiment [1] is human PD-L1 expressed on cells (human, UniProt Q9NZQ7 19-290). The experiment is described as follows: cell-based or functional assay.
Experiment [2] has as its target T1, human PD-L1-Fc chimeric protein (human, UniProt Q9NZQ7 19-238).
T1 construct: not shown: Fc part, captured by an anti-human IgG Fc antibody
The experiment in a line: SPR Biacore T200, PD-L1-Fc captured by anti-human Fc. (In general: Surface plasmon resonance follows binding to a sensor surface in real time, without labels.)

The target of the next experiment is T2, human serum albumin (human, UniProt P02768 25-609).
T2 construct: also called HSA; human SA
The experiment is described as follows: SPR Biacore T200, SA amine-coupled to CM5 chip, pH 5.5.

B1: PRO1013 (scFv)
scFv: DIQMTQSPSSLSASVGDRVTITCQASQSIGTYLAWYQQKPGKAPKLLIYRAFILASGVPSRFSGSGSGTDFTLTISSLQPEDFATYYCQSNFYSDSTTIGPNAFGTGTKVTVLGGGGGSGGGGSGGGGSGGGGSQVQLVQSGAEVKKPGASVKVSCKASGFSFNSDYWIYWVRQAPGQGLEWMGSIYGGSSGNTQYASWAQGRVTMTRDTSISTAYMELSSLRSEDTAVYYCARGYVDYGGATDLWGQGTLVTVSS
For B1, the “IC50 (ng/ml), NF-AT Potency assay” value in experiment [1] was determined as 21.3 ng/mL.

B2: PRO830 (scFv)
scFv: DIQMTQSPSSLSASVGDRVTITCQASQSINDYLAWYQQKPGKAPKLLIYKASTLASGVPSRFSGSGSGTDFTLTISSLQPEDFATYYCQQGYIITDIDNVFGTGTKVTVLGGGGGSGGGGSGGGGSGGGGSQVQLQESGPGLVKPSETLSLTCKVSGFSFSSGYDMCWIRQPPGKGLEWIGCVVAGSVDITYYASWAKGRVTISVDSSKNQFSLKLSSVTAADTAVYYCARKDAYSDAFNLWGQGTLVTVSS
For B2, the “IC50 (ng/ml), NF-AT Potency assay” value in experiment [1] was 42.9 ng/mL.

B3: PRO1060 (bispecific antibody, human IgG1, kappa, L234A L235A)
light: DIQMTQSPSSLSASVGDRVTITCQASQSINDYLAWYQQKPGKAPKLLIYKASTLASGVPSRFSGSGSGTDFTLTISSLQPEDFATYYCQQGYIITDIDNVFGTGTKVTVLGTVAAPSVFIFPPSDEQLKSGTASVVCLLNNFYPREAKVQWKVDNALQSGNSQESVTEQDSKDSTYSLSSTLTLSKADYEKHKVYACEVTHQGLSSPVTKSFNRGEC
heavy: QVQLQESGPGLVKPSETLSLTCKVSGFSFSSGYDMCWIRQPPGKGLEWIGCVVAGSVDITYYASWAKGRVTISVDSSKNQFSLKLSSVTAADTAVYYCARKDAYSDAFNLWGQGTLVTVSSASTKGPSVFPLAPSSKSTSGGTAALGCLVKDYFPEPVTVSWNSGALTSGVHTFPAVLQSSGLYSLSSVVTVPSSSLGTQTYICNVNHKPSNTKVDKRVEPKSCDKTHTCPPCPAPEAAGGPSVFLFPPKPKDTLMISRTPEVTCVVVDVSHEDPEVKFNWYVDGVEVHNAKTKPREEQYNSTYRVVSVLTVLHQDWLNGKEYKCKVSNKALGAPIEKTISKAKGQPREPQVYTLPPSREEMTKNQVSLTCLVKGFYPSDIAVEWESNGQPENNYKTTPPVLDSDGSFFLYSKLTVDKSRWQQGNVFSCSVMHEALHNHYTQKSLSLSPGKGGGGSGGGGSIQMTQSPSSLSASVGDRVTITCQASQSINNVLAWYQQKPGKAPKLLIYRASTLASGVPSRFSGSGSGTDFTLTISSLQPEDFATYYCQSSYGNYGDFGTGTKVTVLGGGGGSGGGGSGGGGSGGGGSQVQLQESGPGLVKPSETLSLTCKVSGFSFSNSYWICWIRQPPGKGLEWIGCTFVGSSDSTYYANWAKGRVTISVDSSKNQFSLKLSSVTAADTAVYYCARHPSDAVYGYANNLWGQGTLVTVSS
In the case of B3, the “IC50 (ng/ml), NF-AT Potency assay” value in experiment [1] is 133 ng/mL.

B4: PRO1058 (other)
chain: DIQMTQSPSSLSASVGDRVTITCQASQSINDYLAWYQQKPGKAPKLLIYKASTLASGVPSRFSGSGSGTDFTLTISSLQPEDFATYYCQQGYIITDIDNVFGTGTKVTVLGGGGGSQVQLQESGPGLVKPSETLSLTCKVSGFSFNNDYDMCWIRQPPGKGLEWIGCIDTGDGSTYYASWAKGRVTISVDSSKNQFSLKLSSVTAADTAVYYCAREAASSSGYGMGYFDLWGQGTLVTVSSGGGGSGGGGSGGGGSGGGGSIQMTQSPSSLSASVGDRVTITCQSSQSVYDNNWLAWYQQKPGKAPKLLIYRASNLASGVPSRFSGSGSGTDFTLTISSLQPEDFATYYCQGTYLSSNWYWAFGTGTKVTVLGGGGGSQVQLQESGPGLVKPSETLSLTCKVSGFSFSSGYDMCWIRQPPGKGLEWIGCVVAGSVDITYYASWAKGRVTISVDSSKNQFSLKLSSVTAADTAVYYCARKDAYSDAFNLWGQGTLVTVSSGGGGSGGGGSVVMTQSPSSLSASVGDRVTITCQASQIISSRSAWYQQKPGQPPKLLIYQASKLASGVPSRFSGSGSGTDFTLTISSLQPEDFATYYCQCTYIDSNFGAFGGGTKLTVLGGGGGSGGGGSGGGGSGGGGSEVQLVESGGGLVQPGGSLRLSCAASGFSFSSSYWICWVRQAPGKGLEWVGCVFTGDGTTYYASWAKGRFTISRDNSKNTVYLQMNSLRAEDTATYFCARPVSVYYYGMDLWGQGTLVTVSS
notes: also called 38_27_C05 sc01 scDb-i/33-03-G02 sc01 scDb-o/mxr HSA (23-13-A01-sc03,sk17sh4)
For the molecule B4, the binding result (in experiment [2]; with human serum albumin) was “binds” each time.

B5: PRO951 (bispecific antibody)
chain: DIQMTQSPSSLSASVGDRVTITCQASQSINDYLAWYQQKPGKAPKLLIYKASTLASGVPSRFSGSGSGTDFTLTISSLQPEDFATYYCQQGYIITDIDNVFGTGTKVTVLGGGGGSEVQLVESGGGLVQPGGSLRLSCAASGFSFNNDYDMCWVRQAPGKGLEWIGCIDTGDGSTYYASWAKGRFTISRDNSKNTVYLQMNSLRAEDTAVYYCAREAASSSGYGMGYFDLWGQGTLVTVSSGGGGSGGGGSGGGGSGGGGSIQMTQSPSSLSASVGDRVTITCQSSQSVYDNNWLAWYQQKPGKAPKLLIYRASNLASGVPSRFSGSGSGTDFTLTISSLQPEDFATYYCQGTYLSSNWYWAFGTGTKVTVLGGGGGSQVQLQESGPGLVKPSETLSLTCKVSGFSFSSGYDMCWIRQPPGKGLEWIGCVVAGSVDITYYASWAKGRVTISVDSSKNQFSLKLSSVTAADTAVYYCARKDAYSDAFNLWGQGTLVTVSS
On to B5, for which, in experiment [1], the “IC50 (ng/ml), NF-AT Potency assay” value worked out at 88.5 ng/mL.

B6: PRO1123 (bispecific antibody)
chain: DIQMTQSPSSLSASVGDRVTITCQASQSINDYLAWYQQKPGKAPKLLIYKASTLASGVPSRFSGSGSGTDFTLTISSLQPEDFATYYCQQGYIITDIDNVFGTGTKVTVLGGGGGSQVQLQESGPGLVKPSETLSLTCKVSGFSFSNSYWICWVRQPPGKGLEWIGCTFVGSSDSTYYANWAKGRVTISVDSSKNQVSLKLSSVTAADTAVYFCARHPSDAVYGYANNLWGQGTLVTVSSGGGGSGGGGSGGGGSGGGGSIQMTQSPSSLSASVGDRVTITCQASQSINNVLAWYQQKPGKPPKLLIYRASTLASGVPSRFSGSGSGTDFTLTISSLQPEDFATYYCQSSYGNYGDFGTGTKVTVLGGGGGSQVQLQESGPGLVKPSETLSLTCKVSGFSFSSGYDMCWIRQPPGKGLEWIGCVVAGSVDITYYASWAKGRVTISVDSSKNQFSLKLSSVTAADTAVYYCARKDAYSDAFNLWGQGTLVTVSS
notes: also called 38-02-A04 sc05 IF scDb-i/33 03 G02 sc01 scDb-o
Regarding B6, the binding result in experiment [2] is “binds”.

B7: PRO966 (other)
chain: DIQMTQSPSSLSASVGDRVTITCQASQSINDYLAWYQQKPGKAPKLLIYKASTLASGVPSRFSGSGSGTDFTLTISSLQPEDFATYYCQQGYIITDIDNVFGTGTKVTVLGGGGGSQVQLQESGPGLVKPSETLSLTCKVSGFSFNNDYDMCWIRQPPGKGLEWIGCIDTGDGSTYYASWAKGRVTISVDSSKNQFSLKLSSVTAADTAVYYCAREAASSSGYGMGYFDLWGQGTLVTVSSGGGGSGGGGSGGGGSGGGGSIQMTQSPSSLSASVGDRVTITCQSSQSVYDNNWLAWYQQKPGKAPKLLIYRASNLASGVPSRFSGSGSGTDFTLTISSLQPEDFATYYCQGTYLSSNWYWAFGTGTKVTVLGGGGGSQVQLQESGPGLVKPSETLSLTCKVSGFSFSSGYDMCWIRQPPGKGLEWIGCVVAGSVDITYYASWAKGRVTISVDSSKNQFSLKLSSVTAADTAVYYCARKDAYSDAFNLWGQGTLVTVSSGGGGSGGGGSIQMTQSPSSLSASVGDRVTITCQSSESVYSNNQLSWYQQKPGQPPKLLIYDASDLASGVPSRFSGSGSGTDFTLTISSLQPEDFATYYCAGGFSSSSDTAFGGGTKLTVLGGGGGSGGGGSGGGGSGGGGSEVQLVESGGGLVQPGGSLRLSCAASGFSLSSNAMGWVRQAPGKGLEYIGIISVGGFTYYASWAKGRFTISRDNSKNTVYLQMNSLRAEDTATYFCARDRHGGDSSGAFYLWGQGTLVTVSS
notes: also called PRO1052; 38_27_C05 sc01 scDb-i/33-03-G02 sc01 scDb-o/19-01-H04-sc03 scFv
Take B7: the binding result (in experiment [2]; with human serum albumin) was “binds” throughout.

B8: PRO1059 (bispecific antibody, human IgG1, kappa, L234A L235A)
light: DIQMTQSPSSLSASVGDRVTITCQASQSINDYLAWYQQKPGKAPKLLIYKASTLASGVPSRFSGSGSGTDFTLTISSLQPEDFATYYCQQGYIITDIDNVFGTGTKVTVLGTVAAPSVFIFPPSDEQLKSGTASVVCLLNNFYPREAKVQWKVDNALQSGNSQESVTEQDSKDSTYSLSSTLTLSKADYEKHKVYACEVTHQGLSSPVTKSFNRGECGGGGSGGGGSIQMTQSPSSLSASVGDRVTITCQASQSINNVLAWYQQKPGKAPKLLIYRASTLASGVPSRFSGSGSGTDFTLTISSLQPEDFATYYCQSSYGNYGDFGTGTKVTVLGGGGGSGGGGSGGGGSGGGGSQVQLQESGPGLVKPSETLSLTCKVSGFSFSNSYWICWIRQPPGKGLEWIGCTFVGSSDSTYYANWAKGRVTISVDSSKNQFSLKLSSVTAADTAVYYCARHPSDAVYGYANNLWGQGTLVTVSS
heavy: QVQLQESGPGLVKPSETLSLTCKVSGFSFSSGYDMCWIRQPPGKGLEWIGCVVAGSVDITYYASWAKGRVTISVDSSKNQFSLKLSSVTAADTAVYYCARKDAYSDAFNLWGQGTLVTVSSASTKGPSVFPLAPSSKSTSGGTAALGCLVKDYFPEPVTVSWNSGALTSGVHTFPAVLQSSGLYSLSSVVTVPSSSLGTQTYICNVNHKPSNTKVDKRVEPKSCDKTHTCPPCPAPEAAGGPSVFLFPPKPKDTLMISRTPEVTCVVVDVSHEDPEVKFNWYVDGVEVHNAKTKPREEQYNSTYRVVSVLTVLHQDWLNGKEYKCKVSNKALGAPIEKTISKAKGQPREPQVYTLPPSREEMTKNQVSLTCLVKGFYPSDIAVEWESNGQPENNYKTTPPVLDSDGSFFLYSKLTVDKSRWQQGNVFSCSVMHEALHNHYTQKSLSLSPGK
For B8, the “IC50 (ng/ml), NF-AT Potency assay” value in experiment [1] came out at 93.8 ng/mL.

B9: PRO963 (other)
chain: DIQMTQSPSSLSASVGDRVTITCQASQSINDYLAWYQQKPGKAPKLLIYKASTLASGVPSRFSGSGSGTDFTLTISSLQPEDFATYYCQQGYIITDIDNVFGTGTKVTVLGGGGGSQVQLQESGPGLVKPSETLSLTCKVSGFSFSNSYWICWIRQPPGKGLEWIGCTFVGSSDSTYYANWAKGRVTISVDSSKNQFSLKLSSVTAADTAVYYCARHPSDAVYGYANNLWGQGTLVTVSSGGGGSGGGGSGGGGSGGGGSIQMTQSPSSLSASVGDRVTITCQASQSINNVLAWYQQKPGKAPKLLIYRASTLASGVPSRFSGSGSGTDFTLTISSLQPEDFATYYCQSSYGNYGDFGTGTKVTVLGGGGGSQVQLQESGPGLVKPSETLSLTCKVSGFSFSSGYDMCWIRQPPGKGLEWIGCVVAGSVDITYYASWAKGRVTISVDSSKNQFSLKLSSVTAADTAVYYCARKDAYSDAFNLWGQGTLVTVSSGGGGSGGGGSIQMTQSPSSLSASVGDRVTITCQSSESVYSNNQLSWYQQKPGQPPKLLIYDASDLASGVPSRFSGSGSGTDFTLTISSLQPEDFATYYCAGGFSSSSDTAFGGGTKLTVLGGGGGSGGGGSGGGGSGGGGSEVQLVESGGGLVQPGGSLRLSCAASGFSLSSNAMGWVRQAPGKGLEYIGIISVGGFTYYASWAKGRFTISRDNSKNTVYLQMNSLRAEDTATYFCARDRHGGDSSGAFYLWGQGTLVTVSS
notes: also called PRO1051; 38_02_A04 sc01 scDb-i/33-03-G02 sc01 scDb-o/19-01-H04-sc03 scFv
For B9, in the experiment with human serum albumin, the binding result was “binds”. The “IC50 (ng/ml), NF-AT Potency assay, with HSA” value in experiment [1] turned out to be 275 ng/mL.
